According to the supplement of paper PMC11865577:

Experiments:
Assay in all cases: pull-down binding Z-score (relative to library population); higher = stronger binding
[1] = test system: TO-N3-2 (biotin conjugate); conditions: RNA library: Library-2
How it was run: (§1)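 Binding is given as a Z-score against the library mean and standard deviation, calculated after removing the beads-only signal and averaging barcoded replicate probes without their highest and lowest values. Cy5- or Cy3-end-labelled RNA library (1 μg) was heat-folded in phosphate/NaCl/KCl buffer and incubated 60 min at 25 °C with streptavidin beads bearing 100 pmol of biotin-conjugated small molecule. After three washes, RNA eluted in hot SDS was hybridised to a DNA barcode microarray for 20 h at 55.5 °C.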

[2] = test system: G-clamp-N3 (biotin conjugate); conditions: RNA library: Library-1 (pre-miRNA loops + repeats)
How it was run: as §1

[3] = test system: TO-3-N3 (biotin conjugate); conditions: RNA library: Library-2
How it was run: as §1

[4] = test system: TO-3-N3-2 (biotin conjugate); conditions: RNA library: Library-2
How it was run: as §1

TO-N3 (biotin conjugate) = conditions: RNA library: Library-2
How it was run: as §1

| Sequence | pull-down binding Z-score [1] | pull-down binding Z-score [2] | pull-down binding Z-score [3] | pull-down binding Z-score [4] | pull-down binding Z-score (TO-N3 (biotin conjugate)) |
| --- | --- | --- | --- | --- | --- |
| GCAGCAGGCACCUGCUUCC [hsa-mir-6868] | 1.49 | -0.816 | 0.367 | 0.16 | 0.984 |
| AGGUCUCCUGGCAU [hsa-mir-4256] | -0.096 | -0.698 | -0.274 | -0.439 | -0.164 |
| CCGCUAGUGGAAGAAGAUGGCGG [hsa-mir-6125] | 1.59 | 1.5 | 0.322 | 0.669 | 0.547 |
| GUGAUGUGAGGAGCAACAGGCACCCUCCU [hsa-mir-6792] | 0.846 | -0.596 | -0.0611 | 0.254 | 0.246 |
| UUCACAGACUCUCCAAAAGUCUGAA [hsa-mir-4670] | -0.533 | -1.33 | -0.362 | -0.404 | -0.543 |
| GGAUCCCAGAUCAAACCAGGCCC [hsa-mir-331] | 0.63 | -0.859 | -0.36 | -0.114 | -0.177 |
| UUUCUGUUGUCUGAAAGAAGAGAAA [hsa-mir-526b_518a-1] | -0.584 | 0.288 | -0.47 | -0.214 | -0.697 |
| CAGUGAGCCAAGAUCGUGCCACUG [hsa-mir-1273d] | -0.0234 | -0.48 | -0.172 | -0.179 | -0.147 |
| AAGGGUGUAUGAGAGAUCAACCCUU [hsa-mir-5697] | 1.19 | 2.33 | 0.544 | -0.0393 | 1.07 |
| GCGGCCGCGCUGGCCGCU [hsa-mir-3665] | 0.524 | 1.02 | -0.0786 | -0.548 | -0.0622 |
| AGUUCGCUUUUAUUAAUGACGAAUA [hsa-mir-410] | -0.121 | -0.994 | -0.624 | -0.0101 | -0.628 |
| CAUGCAGGCCACACUGACGGUAACGUUGCAGG [hsa-mir-431] | 1.01 | 1.54 | 0.647 | 0.263 | 1.08 |
| GACAAUAUGUAUAAUGUUCAUAAGUCAUUC [hsa-mir-384] | -0.0426 | 0.231 | 0.197 | 0.227 | 0.444 |
| GCCGGGGCCUGGCGCUCCUCUACCUUGUCAGGUGACCCAGC [hsa-mir-4274] | 0.434 | -1.05 | 0.564 | -0.179 | 0.538 |
| CACGAGAUUGGGUUGUGCAGAGGCUGACACUUG [hsa-mir-5004] | 0.63 | 0.93 | -0.363 | 0.0781 | -0.0226 |
| AGUCCAAAGGAAAGGGCU [hsa-mir-8077] | -0.0277 | -0.578 | 0.999 | 0.232 | 0.822 |
| CAGCCCCGUGUGUUGAGGAAGGAAGG [hsa-mir-940] | 1.95 | 1.54 | 0.485 | 0.769 | 1.24 |
| GACACCUGGAUUCAGAGAACAUGUC [hsa-mir-1276] | 0.137 | -0.716 | -0.322 | -0.0538 | -0.156 |
| UUUACUUUUGGCCUCAAGUCAUUGCAGUAAA [hsa-mir-4796] | -1.18 | -0.453 | -0.696 | -0.635 | -0.832 |
